Reference: patent publication US20220267442A1

Target: recombinant human TGF-β1 (human) (UniProt P01137)
Test: cell-based or functional assay

Sequence of recombinant human TGF-β1 (human) (P01137 279-390 limits assumed): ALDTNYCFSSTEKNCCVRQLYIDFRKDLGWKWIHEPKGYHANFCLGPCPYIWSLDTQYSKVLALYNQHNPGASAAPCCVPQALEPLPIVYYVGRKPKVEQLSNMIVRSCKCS

80% maximal inhibition (IC80), TGF-β signaling reporter assay (TGF-β/SMAD luciferase in HEK293 cells, 10 ng/mL recombinant human TGF-β1): 25 nM
B1: anti-TGF-β (αTGF-β, 1D11 clone) (antibody, from another filing, V domains shown)
VH: QVQLQQSGPELVRPGASVKLSCKASGYIFITYWMNWVKQRPGQGLEWIGQIFPASGSTNYNEMFEGKATLTVDTSSSTAYMQLSSLTSEDSAVYYCARGDGNYALDAMDYWGQGTSVTVSS
VL: DIVLTQSPASLAVSLGQRATISCRASESVDSYGNSFMHWYQQKSGQPPKLLIYLASNLESGVPARFSGSGSRTDFTLTIDPVEADDAATYYCQQNNEDPLTFGAGTKLEIK
